Measurements reported in PMC10764318.

Key:
Assay in all cases: BLI
[1] = biological target: WRAIR-5004 (rhesus macaque)
[2] = biological target: WRAIR-5020 (rhesus macaque)
[3] = biological target: WRAIR-5011 (rhesus macaque)
[4] = biological target: WRAIR-5021 (rhesus macaque)
[5] = biological target: WRAIR-5005 (rhesus macaque)
[6] = biological target: WRAIR-5001 (rhesus macaque | human)

WRAIR-5020 (rhesus macaque), sequence (VH, as listed by the source, chain 1 of 2): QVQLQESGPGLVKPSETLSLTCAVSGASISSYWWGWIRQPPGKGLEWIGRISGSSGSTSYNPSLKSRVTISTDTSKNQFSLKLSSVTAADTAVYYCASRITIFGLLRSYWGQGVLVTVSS
WRAIR-5020 (rhesus macaque), sequence (VL, as listed by the source, chain 2 of 2): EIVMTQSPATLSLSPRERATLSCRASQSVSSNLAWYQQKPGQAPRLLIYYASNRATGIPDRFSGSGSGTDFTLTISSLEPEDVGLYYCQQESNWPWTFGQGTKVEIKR
WRAIR-5004 (rhesus macaque), sequence (VH, as listed by the source, chain 1 of 2): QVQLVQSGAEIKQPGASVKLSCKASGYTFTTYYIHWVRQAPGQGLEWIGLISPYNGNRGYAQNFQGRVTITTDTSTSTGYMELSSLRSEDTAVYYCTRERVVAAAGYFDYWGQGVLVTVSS
WRAIR-5004 (rhesus macaque), sequence (VL, as listed by the source, chain 2 of 2): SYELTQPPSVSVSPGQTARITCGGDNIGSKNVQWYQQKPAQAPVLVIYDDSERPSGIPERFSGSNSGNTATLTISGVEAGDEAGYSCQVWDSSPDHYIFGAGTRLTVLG
WRAIR-5021 (rhesus macaque), sequence (VH, as listed by the source, chain 1 of 2): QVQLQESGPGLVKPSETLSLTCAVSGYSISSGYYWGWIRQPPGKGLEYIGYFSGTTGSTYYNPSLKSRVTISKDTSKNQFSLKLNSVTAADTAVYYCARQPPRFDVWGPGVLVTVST
WRAIR-5021 (rhesus macaque), sequence (VL, as listed by the source, chain 2 of 2): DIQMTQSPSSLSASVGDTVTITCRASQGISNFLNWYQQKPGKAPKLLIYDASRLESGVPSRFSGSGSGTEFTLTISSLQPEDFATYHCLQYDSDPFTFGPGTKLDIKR
WRAIR-5005 (rhesus macaque), sequence (VH, as listed by the source, chain 1 of 2): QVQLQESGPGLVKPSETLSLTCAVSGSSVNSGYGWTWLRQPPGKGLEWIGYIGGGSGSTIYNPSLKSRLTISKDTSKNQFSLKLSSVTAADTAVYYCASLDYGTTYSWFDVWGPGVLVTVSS
WRAIR-5005 (rhesus macaque), sequence (VL, as listed by the source, chain 2 of 2): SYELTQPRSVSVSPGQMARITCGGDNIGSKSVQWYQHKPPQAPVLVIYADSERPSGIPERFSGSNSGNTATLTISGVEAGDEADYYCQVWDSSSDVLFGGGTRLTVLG
WRAIR-5011 (rhesus macaque), sequence (VH, as listed by the source, chain 1 of 2): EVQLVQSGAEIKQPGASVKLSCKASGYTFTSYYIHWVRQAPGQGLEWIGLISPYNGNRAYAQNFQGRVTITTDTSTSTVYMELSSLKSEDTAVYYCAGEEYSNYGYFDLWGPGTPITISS
WRAIR-5011 (rhesus macaque), sequence (VL, as listed by the source, chain 2 of 2): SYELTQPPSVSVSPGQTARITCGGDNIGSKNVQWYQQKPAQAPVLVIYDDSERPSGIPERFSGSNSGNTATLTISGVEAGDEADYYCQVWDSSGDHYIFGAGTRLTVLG

| Substance | Kd [1] [nM] | Kd [2] [nM] | Kd [3] [nM] | Kd [4] [nM] | Kd [5] [nM] | Kd [6] [nM] |
| --- | --- | --- | --- | --- | --- | --- |
| SARS-CoV-2 Omicron BA.1 RBD (from UniProt P0DTC2 331-527) (domain or fragment) | 1.93 | 24.1 | 0.38 | 8.05 | 14.9 | 0.23 |
| SARS-CoV-2 Omicron BA.4/5 RBD (from UniProt P0DTC2 331-527) (domain or fragment) | 3.1 | 34.5 | 0.42 | 2.63 | 41.1 | 0.92 |
